Consider one molecule from paper PMC5384220 (2017).

One may read the Kd as the concentration at which binding is half-saturated. Low values mean tighter binding, high ones weaker binding.

The target of this assay is T1, His-KDM4A_(1–359)-Bio (human, UniProt O75164 1-359, biotin on the AviTag (>95% biotinylation)).
T1 chain: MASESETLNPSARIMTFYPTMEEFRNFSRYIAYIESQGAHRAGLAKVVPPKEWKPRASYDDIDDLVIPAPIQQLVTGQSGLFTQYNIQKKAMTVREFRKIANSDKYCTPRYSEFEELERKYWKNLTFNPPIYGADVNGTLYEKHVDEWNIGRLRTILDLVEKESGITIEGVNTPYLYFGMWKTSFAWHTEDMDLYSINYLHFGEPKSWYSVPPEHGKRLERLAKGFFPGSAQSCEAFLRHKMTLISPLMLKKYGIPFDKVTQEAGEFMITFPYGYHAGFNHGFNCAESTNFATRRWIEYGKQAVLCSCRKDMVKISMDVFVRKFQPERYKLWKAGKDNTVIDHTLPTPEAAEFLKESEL
Description: BLI.

For ARTKQTARKSTGGKA (trimethyl-lysine at 9) [H3(1–15)K9me3], binding was put at a Kd of 110 µM.
